The values that follow come from patent US20250154500A1 (SEOUL NATIONAL UNIVERSITY R AND DB FOUNDATION, published 2025).

In the test the target is T1, FLAG-tagged ZCCHC2 ΔN (201-1,178 a.a) (human, UniProt Q9C0B9 201-1178).
T1 construct: Transiently expressed in HeLa ZCCHC2 knockout cells; also called pCK-Flag-ZCCHC2 (201-1178); not shown: FLAG tag and any linker to it; The plasmid name pCK-Flag-ZCCHC2 puts the tag at the N-terminus
Description: anti-FLAG co-immunoprecipitation from HeLa ZCCHC2 KO cells, western blot. As for the experimental part: Data are normalized against the value of the wild-type sample and represented as mean±SEM (n=3). * indicates p<0.05, with a two-sided Student's t-test performed. […] Full-length ZCCHC2 protein and its truncated mutants (ΔC, ΔN) were compared for their ability to interact with TENT4 proteins. TENT4A and GAPDH were detected on the same gel, whereas the other proteins were analyzed on separate gels with the same amounts of samples. Cross-reacting bands are indicated by asterisks.
For co-IP experiment, parental cells and TENT4 dKO cells on a 150 μl plate were lysed on ice for 20 minutes using Buffer A (100 mM KCl, 0.1 mM EDTA, 20 mM HEPES [pH 7.5], 0.4% NP-40, 10% glycerol) containing 1 mM DL-Dithiothreitol (DTT), 1× protease inhibitor, and RNase A (Thermo, EN0531), and then centrifuged. For immunoprecipitation, 12.5 μg of antibody (NMG, anti-TENT4A, and anti-TENT4B) conjugated to protein A and G sepharose beads (1:1 mixture, total 20 μl) was used with 1 mg of the lysates. After incubation at 4° C. for 2 hours, the beads were washed, boiled in 20 μl of 2×SDS buffer, and loaded onto a 4-12% (Novex) SDS-PAGE gel with the ladder (Thermo, 26616 and 26619). For domain co-IP experiment, full-length ZCCHC2, truncated construct of ZCCHC2, and negative construct having FLAG tag were transfected in ZCCHC2KO cells, and the cells were lysed within 2 days. […]

T1 sequence (Q9C0B9 201-1178 limits assumed, stated change not applied): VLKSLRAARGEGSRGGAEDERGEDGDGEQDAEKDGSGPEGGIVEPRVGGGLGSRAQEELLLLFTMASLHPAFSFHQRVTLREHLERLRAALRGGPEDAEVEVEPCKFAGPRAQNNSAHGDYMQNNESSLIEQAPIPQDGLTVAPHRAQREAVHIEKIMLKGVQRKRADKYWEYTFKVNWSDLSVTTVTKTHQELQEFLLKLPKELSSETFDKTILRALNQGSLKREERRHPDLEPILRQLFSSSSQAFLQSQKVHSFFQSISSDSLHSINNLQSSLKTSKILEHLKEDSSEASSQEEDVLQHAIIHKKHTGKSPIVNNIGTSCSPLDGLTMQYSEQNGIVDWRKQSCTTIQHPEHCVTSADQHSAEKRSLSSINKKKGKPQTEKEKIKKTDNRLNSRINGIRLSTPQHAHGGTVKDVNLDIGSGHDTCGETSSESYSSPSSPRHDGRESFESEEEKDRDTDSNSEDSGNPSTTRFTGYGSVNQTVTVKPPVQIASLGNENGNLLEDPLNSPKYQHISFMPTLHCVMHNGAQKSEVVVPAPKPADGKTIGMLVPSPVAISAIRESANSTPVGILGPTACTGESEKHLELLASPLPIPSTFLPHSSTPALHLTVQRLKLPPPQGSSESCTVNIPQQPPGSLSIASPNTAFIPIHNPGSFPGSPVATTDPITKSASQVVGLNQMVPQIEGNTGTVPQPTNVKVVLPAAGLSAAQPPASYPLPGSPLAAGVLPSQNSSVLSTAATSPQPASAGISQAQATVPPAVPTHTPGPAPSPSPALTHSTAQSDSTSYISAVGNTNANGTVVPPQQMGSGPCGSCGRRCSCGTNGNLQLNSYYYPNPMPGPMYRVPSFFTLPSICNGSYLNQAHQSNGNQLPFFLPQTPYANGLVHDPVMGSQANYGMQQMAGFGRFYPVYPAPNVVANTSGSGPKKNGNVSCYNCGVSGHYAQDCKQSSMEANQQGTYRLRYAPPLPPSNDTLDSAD

B1: TENT4A (enzyme, human, UniProt Q5XG87 1-792, looked up)
chain: MDPRVAWIQPEQKGPANALWMQIWETSQGVGRGGSGFASYFCLNSPALDTAAAAGAAGRGSGGLGPALPAASPPPPGPTAPAALPPALLTALGPAAEGARRLHKSPSLSSSSSSSSSNAESGTESPGCSSSSSSSASLGRPGGGRGGAFFNFADGAPSAPGTANGHPGPRGPAPAGSPSQHQFHPGRRKRENKASTYGLNYLLSGSRAAALSGGGGPGAQAPRPGTPWKSRAYSPGIQGLHEEIIDFYNFMSPCPEEAAMRREVVKRIETVVKDLWPTADVQIFGSFSTGLYLPTSDIDLVVFGKWERPPLQLLEQALRKHNVAEPCSIKVLDKATVPIIKLTDQETEVKVDISFNMETGVRAAEFIKNYMKKYSLLPYLILVLKQFLLQRDLNEVFTGGISSYSLILMAISFLQLHPRIDARRADENLGMLLVEFFELYGRNFNYLKTGIRIKEGGAYIAKEEIMKAMTSGYRPSMLCIEDPLLPGNDVGRSSYGAMQVKQVFDYAYIVLSHAVSPLARSYPNRDAESTLGRIIKVTQEVIDYRRWIKEKWGSKAHPSPGMDSRIKIKERIATCNGEQTQNREPESPYGQRLTLSLSSPQLLSSGSSASSVSSLSGSDVDSDTPPCTTPSVYQFSLQAPAPLMAGLPTALPMPSGKPQPTTSRTLIMTTNNQTRFTIPPPTLGVAPVPCRQAGVEGTASLKAVHHMSSPAIPSASPNPLSSPHLYHKQHNGMKLSMKGSHGHTQGGGYSSVGSGGVRPPVGNRGHHQYNRTGWRRKKHTHTRDSLPVSLSR
notes: Endogenous protein of HeLa (human) cells; also called PAPD7; TRF4-1
On to B1, for which the binding result is on record as “no binding”.

B2: TENT4B (enzyme, human, UniProt Q8NDF8 1-572, looked up)
chain: MYRSGERLLGSHALPAEQRDFLPLETTNNNNNHHQPGAWARRAGSSASSPPSASSSPHPSAAVPAADPADSASGSSNKRKRDNKASGGRAAGGGRADGGGVVYSGTPWKRRNYNQGVVGLHEEISDFYEYMSPRPEEEKMRMEVVNRIESVIKELWPSADVQIFGSFKTGLYLPTSDIDLVVFGKWENLPLWTLEEALRKHKVADEDSVKVLDKATVPIIKLTDSFTEVKVDISFNVQNGVRAADLIKDFTKKYPVLPYLVLVLKQFLLQRDLNEVFTGGIGSYSLFLMAVSFLQLHPREDACIPNTNYGVLLIEFFELYGRHFNYLKTGIRIKDGGSYVAKDEVQKNMLDGYRPSMLYIEDPLQPGNDVGRSSYGAMQVKQAFDYAYVVLSHAVSPIAKYYPNNETESILGRIIRVTDEVATYRDWISKQWGLKNRPEPSCNGPVSSSSATQSSSSDVDSDATPCKTPKQLLCRPSTGNRVGSQDVSLESSQAVGKMQSTQTTNTSNSTNKSQHGSARLFRSSSKGFQGTTQTSHGSLMTNKQHQGKSNNQYYHGKKRKHKRDAPLSDLCR
notes: Endogenous protein of HeLa (human) cells; also called PAPD5; TRF4-2
Turning to B2, the binding result is on record as “no binding”.
